Starred links: 1 amine or outer side, 2 acyl side, 3 side chain; linkers in the order of their positions; H or OH if unused. Suc = O=C(CCC(=O)[*:2])[*:1]

This note sets out measurements from patent US20190106460A1, “BINDING INHIBITORS OF THE BETA. TRANSDUCIN REPEAT-CONTAINING PROTEIN” (priority 2011, published 2019).

Assay [1] addresses βTrCP (tag cleaved and complexed with Skp1) (UniProt Q9Y297). Kind of assay: FP competition vs fluorescein-IκB peptide.
For assay [2], the target named is HisβTrCP/Skp1 and HisβTrCP/GSTSkp1 (immobilised on NTA Biacore chip) (UniProt Q9Y297). Kind of assay: SPR, Biacore T200, βTrCP/Skp1 immobilised. Background: SPR reads the build-up and loss of mass on a sensor chip optically.
Assay [3] has as its target βTrCP (tag cleaved and complexed with Skp1) (UniProt Q9Y297). Kind of assay: FP competition vs fluorescein-IκB peptide. This is another data set of the same source.
Assay [4] has the same target. The experiment in a line: FP competition, 10 nM fluorescein-IκB peptide on βTrCP/Skp1.
Assay [5] shares this target. The experiment in a line: FP competition vs fluorescein-IκB peptide; Table 7: peptide selected from the arrays of Tables 5 and 6, re-synthesised; FP assay.

HisβTrCP/Skp1 and HisβTrCP/GSTSkp1 (immobilised on NTA Biacore chip), sequence (Q9Y297 175-605, chain 1 of 2): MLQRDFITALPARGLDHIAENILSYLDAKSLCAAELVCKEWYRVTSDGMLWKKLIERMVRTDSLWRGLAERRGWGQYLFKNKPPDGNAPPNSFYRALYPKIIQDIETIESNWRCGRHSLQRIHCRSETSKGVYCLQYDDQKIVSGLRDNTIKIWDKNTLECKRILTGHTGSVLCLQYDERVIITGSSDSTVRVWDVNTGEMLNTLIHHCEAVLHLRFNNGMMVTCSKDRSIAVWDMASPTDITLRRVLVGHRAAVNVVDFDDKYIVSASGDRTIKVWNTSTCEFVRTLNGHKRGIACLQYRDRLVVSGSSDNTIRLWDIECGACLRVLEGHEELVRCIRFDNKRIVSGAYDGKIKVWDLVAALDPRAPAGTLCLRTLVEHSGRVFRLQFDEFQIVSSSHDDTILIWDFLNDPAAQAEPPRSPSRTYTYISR
HisβTrCP/Skp1 and HisβTrCP/GSTSkp1 (immobilised on NTA Biacore chip), sequence (P63208 whole entry, chain 2 of 2, further chain): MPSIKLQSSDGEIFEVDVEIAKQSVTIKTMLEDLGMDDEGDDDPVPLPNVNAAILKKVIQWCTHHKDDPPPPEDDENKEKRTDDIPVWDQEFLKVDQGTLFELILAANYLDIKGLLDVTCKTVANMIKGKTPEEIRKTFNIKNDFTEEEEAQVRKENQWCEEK
βTrCP (tag cleaved and complexed with Skp1), sequence (Q9Y297 175-605, chain 1 of 2): as the sequence (Q9Y297 175-605, chain 1 of 2) above
βTrCP (tag cleaved and complexed with Skp1), sequence (P63208 whole entry, chain 2 of 2, further chain): as the sequence (P63208 whole entry, chain 2 of 2, further chain) above

In assay [1], Mal-EGF(3F)F(4NO2)E-NH2 (peptide) came in with a half-inhibitory concentration (IC50) of 2170 nM. In assay [2], this substance registered a Kd of 1460 nM. For the substance Suc-AG-F(3F)-F(4NO2)-E-NH2 (peptide), the IC50 in assay [1] turned out to be 8010 nM. With Suc-EGF(2F)Y(Me)E-NH2 (peptide), the IC50 came to 3280 nM in assay [1] and 3200 nM in assay [3]. The Kd in assay [2] was determined as 4400 nM.

Consider Suc-EGF(3F)WE-NH2 (peptide), for which the IC50 in assay [1] stood at 95 nM. Besides, the Kd in assay [2] amounted to 455 nM. The like results for DpSGIFE-NH2 (peptide) were, in that order, 1240 nM and 1480 nM. Regarding Suc-EGF(2F)F(4NO2)E-NH2 (peptide), the IC50 in assay [1] is 4910 nM; in assay [3], 4900 nM. In assay [2], this substance returned a Kd of 8000 nM. Substance Suc-EGI-1Nal-E-NH2 (peptide) returned an IC50 in assay [1] of 15100 nM. This lies in the double-digit micromolar range. Still for that read-out and setting: with Suc-EAYFE-NH2 (peptide) the figure was 82100 nM. In assay [1], Suc-EGF(3F)HE-NH2 (peptide) displayed an IC50 of 521 nM. The substance further gave a Kd in assay [2] of 400 nM. The like results for Suc-EGF(3F)1NalE-NH2 (peptide) were, in that order, 157 nM and 320 nM. On to Suc-EGF(4F)F(4NO2)E-NH2 (peptide), for which the figures for the IC50 in assay [1] and in assay [3] were 1210 nM and 1200 nM, respectively. In assay [2], this substance gave a Kd of 507 nM. For the substance Suc-EG-F(3F)-Y(Me)-E-NH2 (peptide), the half-maximal inhibitory concentration (IC50) in assay [1] was determined as 1400 nM.

Consider D-pS-GIFE-NH2 (peptide), for which the IC50 in assay [4] worked out at 1240 nM. With Suc-EG-3Pal-1Nal-E-NH2 (peptide), the IC50 in assay [1] came out at 3630 nM. Same read-out and setting: with Suc-QGFFE-NH2 the figure was 10000 nM. The substance E-pS-GIFE-NH2 (peptide) showed an IC50 in assay [4] of 34500 nM. In other words, the double-digit micromolar range. On to Suc-EGYF(4NO2)E-NH2 (peptide), for which the IC50 in assay [1] amounted to 2070 nM. In assay [2], this substance registered a Kd of 17700 nM. In the case of Suc-EGF(4NO2)1NalE-NH2 (peptide), in assay [1], the IC50 came to 1310 nM. The substance also yielded a Kd in assay [2] of 1960 nM. In assay [1], Suc-EG-F(3F)-1Nal-Q-NH2 (peptide) came in with an IC50 of 7220 nM. Same read-out and setting: with (MeO)Suc-EG-F(3F)-1Nal-E-NH2 (peptide) the figure was 1600 nM. As for Suc-EGF(3F)F(4NO2)E-NH2 (peptide), the IC50 in assay [1] is 522 nM; in assay [3], 520 nM. This substance also registered a Kd in assay [2] of 4530 nM. Turning to EAFFE-NH2 (peptide), the IC50 in assay [5] amounted to 28000 nM. For the substance Suc-EG-F(4NO2)-1Nal-NH2 (peptide), in assay [3], the concentration for half-maximal inhibition (IC50) was found to be 14000 nM. Regarding Suc-EA-F(3F)-F(4NO2)-E-NH2 (peptide), in assay [1], the IC50 stood at 27500 nM.

Consider Suc-QGF(3F)F(4NO2)E-NH2 (peptide), for which the IC50 in assay [1] came to 2560 nM. The dissociation constant Kd in assay [2] is 5490 nM.

Take Suc-EAFFE-NH2 (peptide): in assay [1], the IC50 is 59800 nM. In the case of Suc-QGYFE-NH2, in assay [1], the concentration for half-maximal inhibition (IC50) amounted to 10700 nM. Same read-out and setting: for Suc-AGYFE-NH2 the value was 22200 nM. Suc-EGY1NalE-NH2 (peptide) had an IC50 in assay [1] of 1150 nM. Besides, in assay [2], the Kd worked out at 1490 nM. Take Fum-EG-F(3F)-F(4NO2)-E-NH2 (peptide): the IC50 in assay [1] was 60400 nM. In turn, Suc-EG-F(3F)-3Pal-NH2 (peptide) had an IC50 in assay [3] of 70000 nM.

As a reminder, the IC50 is the concentration that inhibits the measured activity by half. Higher therefore signals a need for much substance. By Kd is commonly meant the concentration at which binding is half-saturated. A high value points to weaker binding.
